Measurements taken from PMC3119066 (DNA repair, 2011).
Read-outs that look alike come from different tables or passages of the source.

Legend:
Rad51 [1] = target: T1, Rad51 (S. cerevisiae, UniProt P25454 1-400); experiment: pull-down
T1 sequence (looked up): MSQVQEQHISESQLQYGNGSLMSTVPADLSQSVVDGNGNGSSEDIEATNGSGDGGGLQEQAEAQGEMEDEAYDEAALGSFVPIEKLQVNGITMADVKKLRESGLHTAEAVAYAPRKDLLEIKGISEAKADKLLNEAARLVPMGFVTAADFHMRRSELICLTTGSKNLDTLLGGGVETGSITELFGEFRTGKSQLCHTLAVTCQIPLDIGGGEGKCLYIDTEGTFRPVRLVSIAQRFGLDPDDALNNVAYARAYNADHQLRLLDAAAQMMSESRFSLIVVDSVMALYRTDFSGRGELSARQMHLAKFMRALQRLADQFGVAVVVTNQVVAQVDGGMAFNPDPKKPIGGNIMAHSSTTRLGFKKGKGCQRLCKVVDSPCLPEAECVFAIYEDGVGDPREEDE

Rad51 [2] = target: T1, Rad51; experiment: pull-down; remark: listed apart in the source

B1: MBP-Mei5-N (domain or fragment, S. cerevisiae, UniProt P32489 1-121, looked up)
chain: MHNQEEWLDKDKTLVNEEENTCINHSYTKKDTNNYRVGKSGIKDLKKPTNQKEIAIKNRELTKQLTLLRQENNHLQQACKILSENKIIENRKSIEKWRTICEMELSFILNSTLIKINRMGG
B1: binds (Rad51 [1]).

B2: Mei5-Sae3 complex (complex, S. cerevisiae)
chain 1: MHNQEEWLDKDKTLVNEEENTCINHSYTKKDTNNYRVGKSGIKDLKKPTNQKEIAIKNRELTKQLTLLRQENNHLQQACKILSENKIIENRKSIEKWRTICEMELSFILNSTLIKINRMGGYKDFLEKEMEAKKRRLEYQIDNGMEDQICEIKESDDFRQLSEVEKQEWESQMNEQLKELEKKKIAELEKLNKVLHDSEGKDFGMAELCTRLKLDYSLIFPQ
chain 2: MNYLETQLNKKQKQIQEYESMNGNLIKMFEQLSKEKKNDETPKKISSTYIKELKEYNELRDAGLRLAQIIADEKQCKIKDVFEEIGYSMKD
B2: binds (Rad51 [2]).
